Source: US20240252614A1 (Pfizer, published 2024)

Columns and labels:
PIV1023 = molecular target: T1, PIV1023 (PIV1); assay: BLI, no stress;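 note: binding of thermally stressed PIV1 F mutant supernatant to mAb on AHC biosensors for 5 min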
T1 construct: A466L
Procedure: (§1) All measurements were conducted at 30° C. temperature in 96-well black plates (Corning, Corning, NY) with a final volume of 240 μL per well at a constant agitation rate of 1000 RPM.
(§2) Conformation integrity of PIV1 F protein mutants were evaluated by a thermal stress experiment. Crude cell culture supernatants were normalized based on the results of the titer quantitation and then incubated for 1 hour at room temperature and two higher temperatures. For the initial testing of PIV1 mutants, the two temperatures were 50° C. and 53° C. […] Anti-Human IgG Fc Capture (AHC) biosensors were first equilibrated in PB for before being dipped into more PB to establish the initial baseline. […] The mAb-bound biosensors were then dipped into the thermal stresses cell culture supernatants for 5 minutes.

PIV1024 = molecular target: T2, PIV1024 (PIV1); assay: BLI, no stress;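 note: binding of thermally stressed PIV1 F mutant supernatant to mAb on AHC biosensors for 5 min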
T2 construct: A466V
Procedure: as §1, §2

PIV1026 = molecular target: T3, PIV1026 (PIV1); assay: BLI, no stress;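 note: binding of thermally stressed PIV1 F mutant supernatant to mAb on AHC biosensors for 5 min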
T3 construct: S473V
Procedure: as §1, §2

PIV1036 = molecular target: T4, PIV1036 (PIV1); assay: BLI, no stress;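 note: binding of thermally stressed PIV1 F mutant supernatant to mAb on AHC biosensors for 5 min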
T4 construct: G134A
Procedure: as §1, §2

[1] = molecular target: T5, PIV1 F literature prefusion comparison (PIV1); assay: BLI, 53C stress
T5 construct: F113G, F114S, A466I, S473I (Stewart-Jones et al. 2018)
Procedure: (§3) The OCTET HTX (Sartorius, Gottingen, Germany) instrument was used to evaluate the expression and conformational integrity for each mutant. All measurements were conducted at 30° C. temperature in 96-well black plates (Corning, Corning, NY) with a final volume of 240 μL per well at a constant agitation rate of 1000 RPM.
as §2

PIV1069 = molecular target: T6, PIV1069 (PIV1); assay: BLI, 53C stress
T6 construct: F113G, F114S, A466L, S473L, G134A
Procedure: as §3, §2

PIV1070 = molecular target: T7, PIV1070 (PIV1); assay: BLI, 53C stress
T7 construct: F113G, F114S, A466I, S473I, G134A
Procedure: as §3, §2

[2] = molecular target: T8, stabilized hPIV1 F protein trimer in pre-fusion conformation (human parainfluenza virus 1); assay: SPR (Biacore 8K+), mAb captured on Protein A chip
T8 construct: also called preF-hPIV1; HPIV1 pre-fusion F protein
Source text: (§4) To avoid conformation changes of F protein while coupling to SPR sensor chip an orientation-specific binding of antibodies through constant (Fc) region was chosen to determine affinity of the newly discovered antibodies using Biacore 8K+ system (Cytiva) and corresponding InSight Software (Cytiva) for analysis. […] Unbound antibodies were washed off with 1×HBS-P buffer. […] Dissociation time was set to 600 seconds to allow for elongated fitting model. Chip was regenerated with two cycles of 4.5M MgCI2 solution. […] Affinity of antibodies were reported in molar concentrations as ratio of dissociation and association.

hMPV B F WT Control = hMPV B F WT Control (hMPV B, UniProt Q6WB98 19-102); assay: BLI, 56C stress
Procedure: as §1
(§5) Conformation integrity of hMPV B F protein mutants were evaluated by a thermal stress experiment. Crude cell culture supernatants were normalized based on the results of the titer quantitation and then incubated for 1 hour at room temperature and two higher temperatures. For the testing of hMPV B single mutants, the two temperatures were 53° C. and 56° C. After the incubation, the protein mutants were probed with prefusion specific monoclonal antibody hMPV-2 by OCTET HTX. Anti-Human IgG Fc Capture (AHC) biosensors were first equilibrated in PB before being dipped into more PB for to establish the initial baseline. Biosensors were incubated with hMPV-2 before being equilibrated in PB to establish the experimental baseline. The mAb-bound biosensors were then dipped into the thermal stresses cell culture supernatants for 5 minutes.

hMPV118 = molecular target: T9, hMPV118 (hMPV B, UniProt Q6WB98 19-102); assay: BLI, 56C stress
T9 construct: T49I, T150C-R156C
Procedure: as §1, §5

hMPV119 = molecular target: T10, hMPV119 (hMPV B, UniProt Q6WB98 19-102); assay: BLI, 56C stress
T10 construct: T49I, T150C-R156C, A459P
Procedure: as §1, §5

hMPV121 = molecular target: T11, hMPV121 (hMPV B, UniProt Q6WB98 19-102); assay: BLI, 56C stress
T11 construct: L141C-A161C, T411C-Q434C
Procedure: as §1, §5

hMPV122 = molecular target: T12, hMPV122 (hMPV B, UniProt Q6WB98 19-102); assay: BLI, 56C stress
T12 construct: A140C-S149C, T411C-Q434C, A459P
Procedure: as §1, §5

hMPV123 = molecular target: T13, hMPV123 (hMPV B, UniProt Q6WB98 19-102); assay: BLI, 56C stress
T13 construct: A140C-S149C, G239A, T411C-Q434C
Procedure: as §1, §5

hMPV125 = molecular target: T14, hMPV125 (hMPV B, UniProt Q6WB98 19-102); assay: BLI, 56C stress
T14 construct: L141C-A161C, G239A, T411C-Q434C
Procedure: as §1, §5

hMPV126 = molecular target: T15, hMPV126 (hMPV B, UniProt Q6WB98 19-102); assay: BLI, 56C stress
T15 construct: T49I, T150C-R156C, G239A, A459P
Procedure: as §1, §5

hMPV127 = molecular target: T16, hMPV127 (hMPV B, UniProt Q6WB98 19-102); assay: BLI, 56C stress
T16 construct: A140C-S149C, G239A, T411C-Q434C, A459P
Procedure: as §1, §5

hMPV128 = molecular target: T17, hMPV128 (hMPV B, UniProt Q6WB98 19-102); assay: BLI, 56C stress
T17 construct: T49I, A140C-S149C, G239A, T411C-Q434C, A459P
Procedure: as §1, §5

hMPV130 = molecular target: T18, hMPV130 (hMPV B, UniProt Q6WB98 19-102); assay: BLI, 56C stress
T18 construct: L141C-A161C, G239A, T411C-Q434C, A459P
Procedure: as §1, §5

hMPV132 = molecular target: T19, hMPV132 (hMPV B, UniProt Q6WB98 19-102); assay: BLI, 56C stress
T19 construct: L141C-A161C, S149T, G239A, T411C-Q434C, A459P
Procedure: as §1, §5

hMPV133 = molecular target: T20, hMPV133 (hMPV B, UniProt Q6WB98 19-102); assay: BLI, 56C stress
T20 construct: T49I, L141C-A161C, S149T, G239A, T411C-Q434C, A459P
Procedure: as §1, §5

hMPV134 = molecular target: T21, hMPV134 (hMPV B, UniProt Q6WB98 19-102); assay: BLI, 56C stress
T21 construct: T49I, L141C-A161C, S149T, G239A, T365I, T411C-Q434C, A459P
Procedure: as §1, §5

hMPV135 = molecular target: T22, hMPV135 (hMPV B, UniProt Q6WB98 19-102); assay: BLI, 56C stress
T22 construct: T49I, S149T, A459P
Procedure: as §1, §5

hMPV136 = molecular target: T23, hMPV136 (hMPV B, UniProt Q6WB98 19-102); assay: BLI, 56C stress
T23 construct: A140C-S149C, A459P
Procedure: as §1, §5

hMPV137 = molecular target: T24, hMPV137 (hMPV B, UniProt Q6WB98 19-102); assay: BLI, 56C stress
T24 construct: T49I, A140C-S149C
Procedure: as §1, §5

hMPV138 = molecular target: T25, hMPV138 (hMPV B, UniProt Q6WB98 19-102); assay: BLI, 56C stress
T25 construct: T49I, A140C-S149C, A459P
Procedure: as §1, §5

hMPV139 = molecular target: T26, hMPV139 (hMPV B, UniProt Q6WB98 19-102); assay: BLI, 56C stress
T26 construct: T49I, L141C-A161C, T411C-Q434C
Procedure: as §1, §5

hMPV140 = molecular target: T27, hMPV140 (hMPV B, UniProt Q6WB98 19-102); assay: BLI, 56C stress
T27 construct: T49I, L141C-A161C, T411C-Q434C, A459P
Procedure: as §1, §5

hMPV142 = molecular target: T28, hMPV142 (hMPV B, UniProt Q6WB98 19-102); assay: BLI, 56C stress
T28 construct: L141C-A161C, S149T, A459P
Procedure: as §1, §5

hMPV144 = molecular target: T29, hMPV144 (hMPV B, UniProt Q6WB98 19-102); assay: BLI, 56C stress
T29 construct: T49I, L141C-A161C, S149T, A459P
Procedure: as §1, §5

[3] = molecular target: T30, stabilized hMPV F protein trimer in pre-fusion conformation (human metapneumovirus); assay: SPR (Biacore 8K+), mAb captured on Protein A chip
T30 construct: also called preF-hMPV; hMPV pre-fusion F protein
Source text: as §4

B1: PIV1-8 mAb (antibody, V domains shown)
VH: QVQLVQSGAEVKKPGSSVKVSCEASGGTFSNYVISWVRQAPGQGLEWMGGIIPVFATAKYAQKFQGRVTIIADQSTNTAYLELSSLRSDDTAVYFCASVDSGGTWWDAFAIWGQGTMVTVSS
VL: QAVVTQPRSVSGSPGQAVTISCTGTSSDVGGYNYVSWYQHHPGKAPKLIIYDVTKRPSGVPDRFSGSKSGNTASLTISGLQTEYEADYYCCSYAGSYTLVFGGGTKLTVLG
notes: human IgG1; also called hPIV1-8 mAb; hPIV1-8
Response Shift (PIV1023): 0.831 nm
Response Shift (PIV1024): 0.745 nm
Response Shift (PIV1026): 0.606 nm
Response Shift (PIV1036): 0.753 nm
Response Shift [1]: 0.717 nm
Response Shift (PIV1069): 0.847 nm
Response Shift (PIV1070): 0.84 nm
Kd [2]: 0.885 nM

B2: hMPV-2 mAb (antibody, V domains shown)
VH: QVQLQQSGAEVKKPGASVKVSCKASGYTFTSYGISWVRQAPGQGLEWMGWISGYNGNTNYAQTFQGTFTMTTDTSTSTAYMELRRLRSGDTAVYYCARDRYYASGSYNGMDVWGQGTTVTVSS
VL: QSALTQPPSASGAPGQRVTVSCSGSSSNVGSSSVYWYQQLPGTAPKLLIYRNNQRPSGVPDRFSGSKSGTSASLAISGLRSEDEADYYCAAWDDSLSGWVFGGGTKLTVLG
notes: human IgG1
Response Shift (hMPV B F WT Control): 0.122 nm
Response Shift (hMPV118): 0.801 nm
Response Shift (hMPV119): 0.828 nm
Response Shift (hMPV121): 0.794 nm
Response Shift (hMPV122): 0.686 nm
Response Shift (hMPV123): 0.559 nm
Response Shift (hMPV125): 0.785 nm
Response Shift (hMPV126): 0.73 nm
Response Shift (hMPV127): 0.674 nm
Response Shift (hMPV128): 0.769 nm
Response Shift (hMPV130): 0.62 nm
Response Shift (hMPV132): 0.694 nm
Response Shift (hMPV133): 0.616 nm
Response Shift (hMPV134): 0.665 nm
Response Shift (hMPV135): 0.724 nm
Response Shift (hMPV136): 0.541 nm
Response Shift (hMPV137): 0.626 nm
Response Shift (hMPV138): 0.663 nm
Response Shift (hMPV139): 0.65 nm
Response Shift (hMPV140): 0.66 nm
Response Shift (hMPV142): 0.706 nm
Response Shift (hMPV144): 0.67 nm
Kd [3]: 0.685 nM
